The values below come from PMC10699790.

This assay concerns the target HA-Halo-mGluR3 (rat), P31422. Briefly: single-molecule pulldown. As to conditions: remark: other sources report otherwise.

B1: HA-Halo-mGluR3, P31422 23-879 (receptor)
chain: LGDHNFMRREIKIEGDLVLGGLFPINEKGTGTEECGRINEDRGIQRLEAMLFAIDEINKDNYLLPGVKLGVHILDTCSRDTYALEQSLEFVRASLTKVDEAEYMCPDGSYAIQENIPLLIAGVIGGSYSSVSIQVANLLRLFQIPQISYASTSAKLSDKSRYDYFARTVPPDFYQAKAMAEILRFFNWTYVSTVASEGDYGETGIEAFEQEARLRNICIATAEKVGRSNIRKSYDSVIRELLQKPNARVVVLFMRSDDSRELIAAANRVNASFTWVASDGWGAQESIVKGSEHVAYGAITLELASHPVRQFDRYFQSLNPYNNHRNPWFRDFWEQKFQCSLQNKRNHRQVCDKHLAIDSSNYEQESKIMFVVNAVYAMAHALHKMQRTLCPNTTKLCDAMKILDGKKLYKEYLLKINFTAPFNPNKGADSIVKFDTFGDGMGRYNVFNLQQTGGKYSYLKVGHWAETLSLDVDSIHWSRNSVPTSQCSDPCAPNEMKNMQPGDVCCWICIPCEPYEYLVDEFTCMDCGPGQWPTADLSGCYNLPEDYIKWEDAWAIGPVTIACLGFLCTCIVITVFIKHNNTPLVKASGRELCYILLFGVSLSYCMTFFFIAKPSPVICALRRLGLGTSFAICYSALLTKTNCIARIFDGVKNGAQRPKFISPSSQVFICLGLILVQIVMVSVWLILETPGTRRYTLPEKRETVILKCNVKDSSMLISLTYDVVLVILCTVYAFKTRKCPENFNEAKFIGFTMYTTCIIWLAFLPIFYVTSSDYRVQTTTMCISVSLSGFVVLGCLFAPKVHIVLFQPQKNVVTHRLHLNRFSVSGTATTYSQSSASTYVPTVCNGREVLDSTTSSL
modifications: here or on the partner: Halo tag labeled with CA-SS-Alexa-488; Halo tag labeled with CA-SS-Alexa-488
Take B1: the stoichiometry N was determined as 2.
